Patent US20110171231A1 (published 2011)

T1: recombinant mouse PlGF-2 (mouse, UniProt P49764 24-158, limits assumed)
T1 sequence (looked up): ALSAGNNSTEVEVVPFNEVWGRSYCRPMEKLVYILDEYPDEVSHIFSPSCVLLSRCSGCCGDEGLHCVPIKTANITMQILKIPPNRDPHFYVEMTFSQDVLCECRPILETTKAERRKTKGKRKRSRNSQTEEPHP

T2: human PlGF-2 (human, UniProt P49763-3 19-170)
T2 construct: Panning used human PlGF residues 19-116 and human PlGF-1; also called hPlGF-2; hPlGF
T2 sequence (looked up): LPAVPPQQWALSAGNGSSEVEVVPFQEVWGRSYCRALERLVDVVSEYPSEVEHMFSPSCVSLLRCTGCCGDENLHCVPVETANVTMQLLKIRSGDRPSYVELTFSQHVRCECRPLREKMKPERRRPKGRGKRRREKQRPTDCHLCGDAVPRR


Experiments:
recombinant mouse PlGF-2 [1] = target: T1, recombinant mouse PlGF-2; experiment: competition ELISA on mPlGF-coated plate; blocked ligand: biotinylated NRP-2
Procedure: The ability of the anti-PlGF Mabs C9.V2 and 7A10 to block the interaction between PlGF and its co-receptors NRP-1 and NRP-2 (Gluzman-Poltorak et al., 2000; Mamluk et al., 2002) was also tested. For PlGF/NRP1 and PlGF/NRP2 competition binding assays, Microtiter plates (Nunc, Rochester, N.Y., USA) were coated with recombinant mouse PlGF (BioVision, Mountain View, Calif., USA) either at 2 μg/mL (for PlGF/NRP1 binding) or at 4 ug/mL (for PlGF/NRP2 binding) in PBS. After an overnight incubation at 4° C., assay plates were washed with wash buffer (PBS/0.05% Tween 20) and treated with block buffer (PBS/0.5% BSA) for 1 to 2 hours. Samples were serially diluted in sample diluent (PBS/0.5% BSA/15 ppm Proclin/0.05% Tween 20/0.2% BGG/0.25% CHAPS/5 mM EDTA/0.3 M NaCl, pH7.4) containing 0.25 ug/mL of heparin (Sigma, St. Louis, Mo., US) and incubated in the presence of either 100 ng/mL of biotin-mouse
NRP1-Fc (0.66 nM for PlGF/NRP1 binding) or 425 ng/mL of biotin-NRP2-Fc (6 nM for PlGF/NRP2-binding). After incubation for 2 hours, assay plates were washed 6 times with wash buffer and then incubated for 45 to 60 minutes with AMDEX streptavidin-HRP (GE Healthcare, Pittsburgh, Pa., USA) diluted 10,000 folds in assay buffer (PBS/0.5% BSA/0.05% Tween 20, pH7.4). […] Absorbance was measured at 450 nm against a reference wavelength of 620 nm.

recombinant mouse PlGF-2 [2] = target: T1, recombinant mouse PlGF-2; experiment: cell-based or functional assay
human PlGF-2 = target: T2, human PlGF-2; experiment: Biacore, anti-mouse Fc chip
recombinant mouse PlGF-2 [3] = target: T1, recombinant mouse PlGF-2; experiment: Biacore, anti-mouse Fc chip

| Molecule | IC50 (read off the curve) (recombinant mouse PlGF-2 [1]) [nM] | calculated IC50 (PlGF-induced migration of 67NR-VEGFR-1 cells, FIG. 2) (recombinant mouse PlGF-2 [2]) [nM] | Kd (human PlGF-2) [nM] | Kd (recombinant mouse PlGF-2 [3]) [nM] |
| --- | --- | --- | --- | --- |
| mFLT1(1-3)-IgG (from UniProt P35969) (Fc fusion) | 4 |  |  |  |
| anti-PlGF monoclonal antibody C9.V2 (antibody, mouse IgG2a, V domains shown, also called C9v2.9; anti-PlGF MAb C9v2) VH: EVQLVESGGGLVQPGGSLRLSCAASGFTFTNTWISWVRQAPGKGLEWVGSITPANGYTNYADSVKGRFTISADTSKNTAYLQMNSLRAEDTAVYYCARAVYPWFFAYWGQGTLVTVSS VL: DIQMTQSPSSLSASVGDRVTITCRASQYVSHAVAWYQQKPGKAPKLLIYSASFLYSGVPSRFSGSGSGTDFTLTISSLQPEDFATYYCQSAYTPPTTFGQGTKVEIK | ~4 | 0.8 | 0.8 | 0.9 |
